This is an account of results in patent US20260183411A1, “TARGETING SORTILIN” (priority 2024, published 2026).

A short description of data set [1]: Murine hematotoxicity assay. It counts as in vivo, mouse. Conditions: 3 mg/kg i.v. QW×4, BALB/c mice. The protocol:
(§1) Murine hematotoxicity experiments were conducted at Charles River Laboratories and the care and use of animals was conducted in accordance with the regulations of the Association for Assessment and Accreditation of Laboratory Animal Care (AAALAC). Wild type BALB/c, female, 7-8 weeks, weighing approximately 18-22 g were randomized and dosed intravenously with control or test articles at a QW×4 schedule. Dosing volume was adjusted based on body weight and was administered at 10 mL/Kg. PDCs were dissolved in 25 mM Histidine 10% sucrose pH 7 and 3 mg/kg was administered. Free MMAE payload was also tested, and similarly dissolved in 25 mM Histidine 10% sucrose pH 7 and administered to the mice at a dose of […] by i.v. injection at a QW×4 schedule. 3 days following each dose, 150 μL of whole blood was collected via submandibular method and placed in K2 EDTA tubes stored on ice. Blood neutrophil counts were performed on the day of collection by IDEXX labs. Body weights were recorded twice a week until study endpoint.
as §1, with “As outlined in the material” for “Murine hematotoxicity experiments were conducted at Charles River Laboratories”, “methods” for “the care and use”, “Example 1, wild” for “animals was conducted in accordance with the regulations of the Association for Assessment and Accreditation of Laboratory Animal Care (AAALAC). Wild”, “PDCs were dissolved in 25 mM Histidine 10% sucrose pH 7 and 3 mg/kg was administered.” left out

The subject of the next data set is MDA-MB-231 xenograft. The data set is described as follows: MDA-MB-231 murine xenograft efficacy model. It counts as in vivo, mouse. The protocol:
Murine xenograft experiments were conducted at WuXi AppTec and/or Charles River Laboratories and the care and use of animals was conducted in accordance with the regulations of the Association for Assessment and Accreditation of Laboratory Animal Care (AAALAC). MDA-MB-231 tumor cells (ATCC, Manassas, VA, cat #HTB-26) were grown and maintained in L15 medium supplemented with 10% heat inactivated fetal bovine serum, 1% Antibiotic-Antimycotic, and L-glutamine (2 mM) at 37° C. in an atmosphere in 5% CO2, 95% air. BALB/c Nude, female, 6-8 weeks, weighing approximately 18-22 g were purchased from Vital River Laboratory Animal Technology Co., LTD. Mice were inoculated subcutaneously at the right flank with MDA-MB-231 tumor cells (e.g., triple negative breast cancer cells) (10×10^6) in 0.2 mL of PBS with Matrigel (1:1) for tumor development. Animals were randomized and treatment was started when the average tumor volume reached approximately 150-200 mm^3 for the efficacy study. Dosing volume was adjusted based on body weight and was administered at 10 mL/Kg. […] Free MMAE payload was also tested, and similarly dissolved in 25 mM Histidine 10% sucrose pH 7 and one or more of the following doses, 0.6, 0.06 mg/kg, were administered to the mice i.v. at a QW×4 schedule. Tumor sizes were measured twice weekly in two dimensions using a caliper, and the volume in mm^3 calculated using the formula: V=0.5 a×b^2, where a and b are the long and short diameters of the tumor, respectively. TGI was calculated for each group using the formula: TGI (%)=[1−(Ti−T0)/(Vi−V0)]×100; where Ti is the average tumor volume of a treatment group on a given day, TO is the average tumor volume of the treatment group on the first day of treatment, Vi is the average tumor volume of the vehicle control group on the same day with Ti, and V0 is the average tumor volume of the vehicle group on the first day of treatment.
To characterize the effects of the MMAE payload alone, we included free MMAE at molar equivalency to PDCs, and tested at 0.6 and 0.06 mg/kg, as separate arms.
To characterize the effects of the MMAE payload alone, we included free MMAE at molar equivalency to PDCs, and tested at 0.6 mg/kg.

The next data set concerns the target T1, rat SORT1 (76-752)-His (rat, UniProt O54861 76-752).
T1 construct: range 76-752; Amine-coupled to CM5 chip for SPR
T1 sequence (looked up): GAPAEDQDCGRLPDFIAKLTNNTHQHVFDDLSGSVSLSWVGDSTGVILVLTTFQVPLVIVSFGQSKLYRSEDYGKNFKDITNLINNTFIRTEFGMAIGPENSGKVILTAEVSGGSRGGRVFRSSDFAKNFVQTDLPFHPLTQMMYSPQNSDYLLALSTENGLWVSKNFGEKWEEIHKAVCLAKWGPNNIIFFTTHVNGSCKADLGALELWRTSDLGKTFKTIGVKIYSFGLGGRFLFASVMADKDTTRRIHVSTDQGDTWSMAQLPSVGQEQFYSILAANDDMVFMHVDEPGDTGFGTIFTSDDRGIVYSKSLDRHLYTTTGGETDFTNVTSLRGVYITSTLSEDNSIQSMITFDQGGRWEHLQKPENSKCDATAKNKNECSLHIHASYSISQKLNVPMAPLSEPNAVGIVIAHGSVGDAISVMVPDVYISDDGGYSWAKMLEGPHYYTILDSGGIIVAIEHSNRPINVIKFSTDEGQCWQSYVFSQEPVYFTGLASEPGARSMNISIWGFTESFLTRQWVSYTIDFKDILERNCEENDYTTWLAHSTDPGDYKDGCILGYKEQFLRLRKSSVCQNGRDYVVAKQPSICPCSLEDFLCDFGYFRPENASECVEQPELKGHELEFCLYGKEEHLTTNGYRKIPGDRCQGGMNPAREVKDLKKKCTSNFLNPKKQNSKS
The data set is described as follows: SPR (Biacore 8K), SORT1 on CM5 chip, siRNA-peptide conjugate as analyte, 1:1 model. How it is done: (§2) SPR analysis was performed on Series S CM5 chips (Cytiva) using a Biacore 8K instrument (Cytiva). Sensorgrams were double-referenced by subtracting the response on both a reference flow cell and a blank sample. Human SORT1 (78-755)-His (Acrobiosystems), human SORT1 (78-755)-His(GenScript), mouse SORT1 (76-753)-His (R&D Systems), rat SORT1 (76-752)-His (GenScript), and cyno SORT1 (76-753)-His (GenScript) were diluted to 20-60 μg/mL in 10 mM sodium acetate pH 4.5 buffer and immobilized onto Series S CM5 chips using amine coupling at a flow rate of 10 μL/min for 45-100 s.
(§3) Ten start-up cycles and a blank cycle preceded each analysis run. The runs were performed by sequential injections of analyte (0-20 nM, 3-fold serial dilutions) with a 90 s association and 900 s dissociation at a flow rate of 30 μL/min, followed by two regeneration cycles with 2 M MgCl2 for 90 s at a flow rate of 10 μL/min. […] Five start-up cycles and a blank cycle preceded each analysis run. The runs were performed by sequential injections of analyte (0-25 nM) with a 150 seconds (s) association and 300 s dissociation at a flow rate of 30 μL/min, followed by a regeneration with 2 M MgCl₂ for 200 s at a flow rate of 10 μL/min. The kinetic rate constants (kₐ and kd) and the equilibrium binding constant (Kd) were calculated using a 1:1 kinetic binding model on the Biacore Insight Evaluation Software (Cytiva).
(§4) SPR analysis was performed on Series S CM5 chips (Cytiva) using a Biacore 8K instrument (Cytiva). Sensorgrams were double-referenced by subtracting the response on both a reference flow cell and a blank sample. The SPR analysis was conducted using four different SORT1 species: Human SORT1, Mouse SORT1, Rat SORT1, and Cyno SORT1. The samples were prepared according to the general procedure described above herein. The kinetic rate constants (ka and […]) and the equilibrium binding constant (Kd) were calculated using a 1:1 kinetic binding model on the Biacore Insight Evaluation Software (Cytiva).

Another data set deals with T2, mouse SORT1 (76-753)-His (mouse, UniProt Q6PHU5 76-753).
T2 construct: range 76-753; Amine-coupled to CM5 chip for SPR
T2 sequence (looked up): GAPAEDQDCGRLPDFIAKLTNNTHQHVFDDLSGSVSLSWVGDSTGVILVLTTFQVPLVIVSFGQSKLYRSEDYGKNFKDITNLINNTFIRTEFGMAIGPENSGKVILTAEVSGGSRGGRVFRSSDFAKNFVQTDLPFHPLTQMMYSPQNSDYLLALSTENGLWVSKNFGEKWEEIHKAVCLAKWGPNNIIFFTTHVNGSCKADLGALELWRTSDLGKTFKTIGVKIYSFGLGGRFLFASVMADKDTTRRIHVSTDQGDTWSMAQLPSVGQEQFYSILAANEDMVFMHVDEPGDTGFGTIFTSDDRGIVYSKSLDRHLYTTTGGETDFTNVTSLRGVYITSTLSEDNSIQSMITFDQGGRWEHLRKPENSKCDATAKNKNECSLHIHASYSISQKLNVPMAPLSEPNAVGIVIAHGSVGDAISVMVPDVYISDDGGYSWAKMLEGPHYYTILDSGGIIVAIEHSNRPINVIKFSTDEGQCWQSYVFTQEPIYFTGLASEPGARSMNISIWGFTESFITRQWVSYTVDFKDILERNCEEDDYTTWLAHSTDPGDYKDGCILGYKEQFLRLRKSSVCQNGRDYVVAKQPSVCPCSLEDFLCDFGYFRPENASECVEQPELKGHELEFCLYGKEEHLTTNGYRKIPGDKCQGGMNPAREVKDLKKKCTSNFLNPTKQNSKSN
The data set is described as above. How it is done: as §2, §3, §4

The target of a further data set is T3, cyno SORT1 (76-753)-His (cyno, UniProt A0A2K5VHG2 74-751).
T3 construct: range 76-753; Amine-coupled to CM5 chip for SPR
T3 sequence: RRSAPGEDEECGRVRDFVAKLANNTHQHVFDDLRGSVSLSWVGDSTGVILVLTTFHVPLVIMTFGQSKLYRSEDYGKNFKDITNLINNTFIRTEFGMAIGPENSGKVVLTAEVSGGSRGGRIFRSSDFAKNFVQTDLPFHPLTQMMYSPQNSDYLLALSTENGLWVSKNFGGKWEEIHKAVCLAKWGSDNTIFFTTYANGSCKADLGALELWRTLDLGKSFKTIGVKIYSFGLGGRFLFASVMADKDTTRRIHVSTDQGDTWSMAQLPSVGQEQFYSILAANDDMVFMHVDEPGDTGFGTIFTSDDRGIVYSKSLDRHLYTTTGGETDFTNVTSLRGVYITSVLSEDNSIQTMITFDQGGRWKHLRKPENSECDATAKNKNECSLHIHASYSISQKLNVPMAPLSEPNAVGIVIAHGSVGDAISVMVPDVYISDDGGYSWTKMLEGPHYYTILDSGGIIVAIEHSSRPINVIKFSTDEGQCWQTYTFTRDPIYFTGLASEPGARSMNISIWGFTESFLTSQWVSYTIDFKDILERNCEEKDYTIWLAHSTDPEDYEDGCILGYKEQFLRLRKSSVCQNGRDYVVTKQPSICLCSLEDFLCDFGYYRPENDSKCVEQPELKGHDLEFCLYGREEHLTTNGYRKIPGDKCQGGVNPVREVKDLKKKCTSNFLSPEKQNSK
The data set is described as above. The protocol: as §2, §3, §4

Where no end group is shown, it is not given here. [ ]: non-standard residue; d: D form. Cba = N[C@@H](CC1CCC1)C(=O)O; Tle = CC(C)(C)[C@H](N)C(=O)O

On to `CC[C@H](C)[C@@H]([C@@H](CC(=O)N1CCC[C@H]1[C@H](OC)[C@@H](C)C(=O)N[C@H](C)[C@@H](O)c1ccccc1)OC)N(C)C(=O)[C@@H](NC(=O)[C@H](C(C)C)N(C)C(=O)OCc1ccc(NC(=O)[C@H](CCCNC(N)=O)NC(=O)[C@@H](NC(=O)CCCC(=O)NCCC(=O)N(C)CC(=O)N(C)CC(=O)N(C)CC(=O)N(C)CC(=O)N[C@@H](C)C(=O)N2CCC[C@H]2C(=O)N[C@@H](CCCNC(=N)N)C(=O)N[C@@H](Cc2c[nH]c3ccccc23)C(=O)N[C@@H](CC(=O)O)C(=O)N[C@@H](C)C(=O)N2CCC[C@H]2C(=O)N[C@@H](CC(C)C)C(=O)N[C@@H](CCCNC(=N)N)C(=O)N[C@@H](CC(=O)O)C(=O)N2CCC[C@H]2C(=O)N[C@@H](C)C(=O)N[C@@H](CC(C)C)C(=O)N[C@@H](CCCNC(=N)N)C(=O)N[C@@H](CCC(N)=O)C(=O)N[C@H](C(=O)N[C@@H](CC2CCC2)C(=O)O)C(C)(C)C)C(C)C)cc1)C(C)C` [Arb-SAR-Q15-PDC], for which, in data set [1], the “blood neutrophil counts compared to vehicle or MMAE treatment” value is given as “reduced neutrophil counts”. For the same molecule, the “tumor growth inhibited relative to vehicle” value with MDA-MB-231 xenograft (3 mg/kg i.v. QW×4, day 22) turned out to be 98%. The “body weight loss (Example 8)” value in the data set on MDA-MB-231 xenograft (PDCs 3 mg/kg, free MMAE at molar equivalency (0.6 mg/kg)) is “body weight loss tracked each other”.

B1: SORT1 peptide 2 conjugate (peptide)
peptide: APRWDAPLRDPALRQ[Tle][Cba]
modifications: also: conjugated to siRNA targeting a housekeeping gene mRNA, linker and handle not given here
notes: also called SORT1 peptide 2 siRNA conjugate; Arb-SAR-Q15_PDC2
Regarding B1, the dissociation constant (Kd) in the data set with rat SORT1 (76-752)-His is 14.6 nM; with mouse SORT1 (76-753)-His, 8.56 nM; with cyno SORT1 (76-753)-His it was 4.81 nM.

B2: SORT1 peptide 1 conjugate (peptide)
peptide: APRWDAPLRDPALRQLL
modifications: also: conjugated to siRNA, linker and handle not given here
notes: also called SORT1 peptide 1 siRNA conjugate
For the molecule B2, the dissociation constant Kd with rat SORT1 (76-752)-His was 49.2 nM; in the data set with mouse SORT1 (76-753)-His, 30.2 nM; in the data set with cyno SORT1 (76-753)-His, 16.8 nM.
